Assays:
CD20 [1] = biological target: T1, CD20 (UniProt P11836 1-297, limits assumed); assay: flow cytometry on Raji cells; Kd=[Ab]*{Fmax/(F-Fback)-1}
T1 construct: whole, on cells; Endogenous CD20 on Raji and Wil2-s cell lines; also called CD20 on Raji cells; CD20 on Wil2-s cells
T1 sequence (looked up): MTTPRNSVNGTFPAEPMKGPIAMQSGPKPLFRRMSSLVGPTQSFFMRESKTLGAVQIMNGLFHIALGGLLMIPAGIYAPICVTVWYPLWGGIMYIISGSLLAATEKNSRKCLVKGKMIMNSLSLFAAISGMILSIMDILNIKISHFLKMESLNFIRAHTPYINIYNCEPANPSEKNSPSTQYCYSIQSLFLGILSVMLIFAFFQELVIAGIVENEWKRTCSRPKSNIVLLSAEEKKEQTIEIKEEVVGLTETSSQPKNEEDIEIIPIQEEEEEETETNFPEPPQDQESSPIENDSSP

CD20 [2] = biological target: T1, CD20; assay: flow cytometry, antibody titrated on Wil2-s cells, FITC anti-human IgG1 Fab secondary
CD20 [3] = biological target: T1, CD20; assay: flow cytometry, antibody titrated on Raji cells, FITC anti-human IgG1 Fab secondary
CD20 [4] = biological target: T1, CD20; assay: flow cytometry; Mean Kd over Raji and Wil2-s cells
CD20 [5] = biological target: T1, CD20; assay: flow cytometry on Wil2-s cells; Kd=[Ab]*{Fmax/(F-Fback)-1}
FcγRIIIa 158V = biological target: T2, FcγRIIIa 158V (UniProt P08637 17-208, biotin-labeled (site not stated)); assay: biosensor with SA sensor, biotin-FcγRIIIa 158V loaded, antibody in solution (7 concentrations, 2x gradient from 500 nM)
T2 construct: also called biotin-labeled FcγRIIIa 158V
T2 sequence (P08637 17-208 F176V): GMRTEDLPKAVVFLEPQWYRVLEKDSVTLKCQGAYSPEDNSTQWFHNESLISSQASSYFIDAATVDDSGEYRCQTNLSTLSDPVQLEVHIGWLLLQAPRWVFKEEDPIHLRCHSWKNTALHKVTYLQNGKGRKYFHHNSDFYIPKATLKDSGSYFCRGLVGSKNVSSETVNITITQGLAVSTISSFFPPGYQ
Description: The sensor was pre-wetted in PBS for 10 min. […] AB solution, […], regeneration buffer, drug diluent and neutralization buffer were sequentially added to the corresponding columns of a 96-well plate. The SA sensor operates as follows: Baseline: detected the baseline in AB, 150 s; Association: combined in the gradient concentration of drug diluent sample and blank (AB) for 90 s; Dissociation: dissociated in AB for 120 s; Regeneration: regenerated in NaOH (pH 10.5) for 5 s; Neutralization: neutralized in AB for 5 s. The regeneration and neutralization cycles were carried out for 3 times. The collected data were analyzed by the instrument data analysis software Acquisition 8.2. Taking Baseline acquisition signal as a baseline and subtracting the reference signal (double deduction of sample blank and sensor blank), the data were subject to group analysis and fitted.

B1: Rituximab (antibody, V domains shown)
VH: QVQLQQPGAELVKPGASVKMSCKASGYTFTSYNMHWVKQTPGRGLEWIGAIYPGNGDTSYNQKFKGKATLTADKSSSTAYMQLSSLTSEDSAVYYCARSTYYGGDWYFNVWGAGTTVTVSA
VL: QIVLSQSPAILSASPGEKVTMTCRASSSVSYIHWFQQKPGSSPKPWIYATSNLASGVPVRFSGSGSGTSYSLTISRVEAEDAATYYCQQWTSNPPTFGGGTKLEIK
Binder B1 has a Kd (CD20 [1]) of 12.7 nM, an IC50 (CD20 [2]) of 16.8 nM and an IC50 (CD20 [3]) of 13.3 nM. The Kd (CD20 [4]) was 14.3 nM and the Kd (CD20 [5]) was 16 nM.

B2: BAT4306F (antibody, human IgG1)
light: DIVMTQTPLSLPVTPGEPASISCRSSKSLLHSNGITYLYWYLQKPGQSPQLLIYQMSNLVSGVPDRFSGSGSGTDFTLKISRVEAEDVGVYYCAQNLELPYTFGGGTKVEIKR
heavy: not shown
modifications: N-linked oligosaccharide without fucose (produced in FUT8 knockout CHO-2G8 / CHO-BAT-KF cells)
notes: Humanized anti-CD20 IgG with B-HH6 heavy and B-KV1 light variable regions from B-Ly1 (WO2005044859); Non-fucosylated glycoform; also called carbohydrate chain modified BAT4306F
B2 was tested, and the Kd (FcγRIIIa 158V) was 25.7 nM.

From US20200199236A1 (BIO THERA SOLUTIONS, published 2020)
